Values quoted from earlier work in paper PMC3288358 (ACS Chemical Biology, 2011).

Key:
hMc3R = hMc3R (Homo sapiens, UniProt P41968); details: read-out: Mc3R EC50; cAMP assay; data adapted from ref Wilczynski et al. ([34])
male Long-Evans rats = details: requires higher minimal doses for activation; ref [8]

Chain of hMc3R (P41968 whole entry): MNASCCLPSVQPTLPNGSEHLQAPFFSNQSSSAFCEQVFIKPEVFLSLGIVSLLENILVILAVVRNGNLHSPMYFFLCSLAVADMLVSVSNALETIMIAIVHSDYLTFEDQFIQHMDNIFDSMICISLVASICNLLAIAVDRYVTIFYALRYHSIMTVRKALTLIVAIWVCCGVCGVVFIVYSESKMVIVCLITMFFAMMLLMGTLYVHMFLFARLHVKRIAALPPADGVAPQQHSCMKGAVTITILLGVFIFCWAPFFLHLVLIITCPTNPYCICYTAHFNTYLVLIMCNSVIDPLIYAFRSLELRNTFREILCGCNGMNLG

| Substance | EC50 (hMc3R) | Long-term feeding response compared with AgRP (male Long-Evans rats) |
| --- | --- | --- |
| AgRP(87-132): Truncated AgRP lacking the four residue N-terminal segment, N-terminal acetylated | 8.9 ± 0.2 nM |  |
| SHU9119 |  | long-term response similar to AgRP |
